Measured values taken from patent publication US20230383007A1 (BIOSION, published 2023).

T1: cynomolgus TROP2-his protein (cynomolgus, UniProt P09758 27-272 (human entry), limits assumed)
T1 construct: also called Cyno TROP2-his; Cynomolgus monkey TROP2-his protein
T1 chain: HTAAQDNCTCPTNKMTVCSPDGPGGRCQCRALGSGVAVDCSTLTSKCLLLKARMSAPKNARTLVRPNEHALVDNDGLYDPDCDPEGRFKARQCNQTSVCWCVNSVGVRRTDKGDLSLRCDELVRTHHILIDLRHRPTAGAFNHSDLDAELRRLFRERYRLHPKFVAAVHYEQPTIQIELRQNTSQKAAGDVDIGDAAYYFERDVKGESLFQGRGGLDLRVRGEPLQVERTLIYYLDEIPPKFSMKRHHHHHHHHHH

T2: human TROP2-his protein (human, UniProt P09758 27-274)
T2 construct: also called biotin labeled human TROP2-his protein
T2 sequence: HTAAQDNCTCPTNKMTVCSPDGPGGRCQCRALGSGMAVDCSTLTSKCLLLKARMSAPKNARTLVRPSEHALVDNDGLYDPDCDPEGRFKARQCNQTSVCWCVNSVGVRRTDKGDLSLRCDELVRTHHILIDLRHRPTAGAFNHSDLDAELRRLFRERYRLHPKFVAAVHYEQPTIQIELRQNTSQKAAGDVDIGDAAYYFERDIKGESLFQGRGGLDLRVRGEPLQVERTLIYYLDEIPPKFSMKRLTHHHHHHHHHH

T3: full length human TROP2 on 293F-TROP2 cells (clone ID #3A8) (human, UniProt P09758 27-323)
T3 sequence: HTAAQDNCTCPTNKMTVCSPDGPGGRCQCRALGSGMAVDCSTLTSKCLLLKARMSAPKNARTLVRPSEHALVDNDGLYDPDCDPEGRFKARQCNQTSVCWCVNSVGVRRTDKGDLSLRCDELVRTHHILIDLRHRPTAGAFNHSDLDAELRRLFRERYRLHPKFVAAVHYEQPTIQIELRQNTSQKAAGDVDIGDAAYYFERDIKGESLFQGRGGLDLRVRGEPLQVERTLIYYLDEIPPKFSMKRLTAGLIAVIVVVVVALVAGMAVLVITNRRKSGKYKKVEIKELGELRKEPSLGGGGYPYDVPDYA

B1: sacituzumab (benchmark, an analog of sacituzumab, in house made) (antibody, human IgG1, kappa, V domains shown)
VH: SVQLQQSGSELKKPGASVKVSCKASGYTFTNYGMNWVKQAPGQGLKWMGWINTYTGEPTYTDDFKGRFAFSLDTSVSTAYLQISSLKADDTAVYFCARGGFGSSYWYFDVWGQGSLVTVSS
VL: DIQLTQSPSSLSASVGDRVSITCKASQDVSIAVAWYQQKPGKAPKLLIYSASYRYTGVPDRFSGSGSGTDFTLTISSLQPEDFAVYYCQQHYITPLTFGAGTKVEIKR
notes: also called BM; BM1
B2: single domain antibody 01-9F (VHH)
VHH: QVQLVESGGGSVQAGGSLRLSCVVSGLPYERYCVAWFRQGPGKEREGVARILSDGTTSYSDSVKGRFTISKDNAKNTLYLQMNSLKSEDTATYYCAAEAFRPFTPSDGDCTTVLGIDYWGKGTPVTVSS

Experiments:
[1] = biological target: T1, cynomolgus TROP2-his protein; test: indirect ELISA on cynomolgus TROP2; unit taken from the x axis (nM)
human TROP2-his protein [2] = biological target: T2, human TROP2-his protein; test: SPR Biacore; antibody captured on anti-human IgG chip, TROP2-his as analyte
human TROP2-his protein [3] = biological target: T2, human TROP2-his protein; test: indirect ELISA, plate coated with human TROP2-his; unit taken from the x axis (Con of mAb, ng/mL)
Procedure: The single domain antibodies of the disclosure were tested in the indirect ELISA for their cross-reaction with cynomolgus TROP2 protein. Briefly, 96-well micro plates were coated with 100 μl 2 μg/ml human TROP2-his protein (prepared in-house with SEQ ID NO: 16) in carbonate/bicarbonate buffer (pH 9.6) overnight at 4° C. ELISA plates were washed once with wash buffer (PBS+0.05% v/v Tween-20, PBST) and then blocked with 200 μl/well blocking buffer (5% w/v non-fatty milk in PBST) for 2 hours at 37° C. Plates were washed 4 times and incubated with 100 μl/well serially diluted anti-TROP2 antibodies of the disclosure or controls (starting at 66.7 nM, 5-fold serial dilution in 2.5% w/v non-fatty milk in PBST) for 40 minutes at 37° C. ELISA plates were washed 4 times again and incubated with Peroxidase AffiniPure F(ab′)₂ Fragment Goat Anti-Human IgG, Fey fragment specific (Jackson Immuno Research, Cat #109-036-098, 1:5000 dilution in PBST buffer, 100 μl/well) for 40 minutes at 37° C. After a final wash, plates were incubated with 100 μl/well TMB (Innoreagents) at room temperature. The reaction was stopped 3-10 minutes later at room temperature with 50 μl/well 1M H₂SO₄, and the absorbance of each well was read on a microplate reader using dual wavelength mode with 450 nm for TMB and 630 nm as the reference wavelength. The OD (450-630) values were plotted against antibody concentration. Data was analyzed using Graphpad Prism software and EC₅₀ values were reported.

[4] = biological target: T3, full length human TROP2 on 293F-TROP2 …; test: cell based binding FACS (MFI) on 293F-TROP2 cells expressing human TROP2; unit taken from the x axis (nM)
Procedure: Cells were washed twice with FACS buffer, and added with 100 μL/well R-Phycoerythrin AffiniPure Goat Anti-Human IgG, Fey fragment specific (1:1000 dilution in FACS buffer, Jackson Immunoresearch, Cat #109-115-098). Following an incubation of 40 minutes at 4° C. in dark, cells were washed twice and re-suspended in FACS buffer. Fluorescence was measured using a Becton Dickinson FACS Canto II-HTS equipment, and the MFI (mean fluorescence intensity) was plotted against antibody concentration. Data was analyzed using Graphpad Prism software and EC₅₀ values were reported.

human TROP2-his protein [5] = biological target: T2, human TROP2-his protein; test: SPR Biacore T200; antibody captured on anti-human IgG CM5 chip, TROP2-his as analyte in 2-fold dilutions from 160 nM; 1:1 Langmuir fit
Description: (§1) The purified anti-TROP2 mouse monoclonal antibodies (mAbs) were characterized for binding affinity and binding kinetics by Biacore T200 system (GE healthcare, Pittsburgh, PA, USA). Briefly, goat anti-human IgG (GE healthcare, Cat #BR100839, Human Antibody Capture Kit) was covalently linked to a CM5 chip (carboxy methyl dextran coated chip from GE healthcare #BR100530) via primary amines, using a standard amine coupling kit (GE healthcare, Pittsburgh, PA, USA) provided by Biacore. Un-reacted moieties on the chip (biosensor) surface were blocked with ethanolamine. The anti-TROP2 antibodies of the disclosure and the benchmark at the concentration of 2 μg/ml were respectively flowed onto the chip at a flow rate of 10 μL/min. Then, serially diluted human TROP2-his protein (prepared in-house with SEQ ID NO: 16), or cynomolgus TROP2-his protein (prepared in-house with SEQ ID NO: 19), 2-fold dilution in HBS-EP⁺ buffer (provided by Biacore) starting at 160 nM, were flowed onto the chip at a flow rate of 30 μL/min. The antigen-antibody association kinetics was followed for 2 minutes and the dissociation kinetics was followed for 10 minutes. The association and dissociation curves were fit to a 1:1 Langmuir binding model using BIAcore evaluation software.

[6] = biological target: T1, cynomolgus TROP2-his protein; test: as above
Description: as §1

Row | Binder | EC50 [1] [nM] | Kd (human TROP2-his protein [2]) [nM] | koff (human TROP2-his protein [2]) [s⁻¹] | kon (human TROP2-his protein [2]) [M⁻¹ s⁻¹] | EC50 (human TROP2-his protein [3]) [µg/mL] | EC50 [4] [nM] | Kd (human TROP2-his protein [5]) [nM] | koff (human TROP2-his protein [5]) [s⁻¹] | kon (human TROP2-his protein [5]) [M⁻¹ s⁻¹] | Kd [6] [nM] | koff [6] [s⁻¹] | kon [6] [M⁻¹ s⁻¹]
1 | B1 | 0.161 | 0.554 | 0.000286 | 516000 | 0.0374 | 0.706 | 0.409 | 0.000116 | 284000 | 0.874 | 0.000224 | 257000
2 | B2 | 0.107 | 0.291 | 0.00017 | 586000 | 0.0208 | 0.53 | 0.0262 | 8.11e-06 | 309000 | 0.558 | 0.000161 | 287000
